This is an account of results in publication PMC5701133 (Scientific Reports, 2017).

The target of the experiment is T1, BRD4 ET domain (residues M610-R676) (human, UniProt O60885 610-676, uniformly 15N-labelled for the NMR titrations).
T1 construct: human BRD4, extraterminal (ET) domain, residues 610-676; also called extraterminal (ET) domain of BRD4; source: E. coli BL21-CodonPlus (pRIL), purified (HiTrap IMAC, Superdex)
Briefly: ITC; MicroCal auto-ITC200, 20 °C, PBS pH 7.4 with 0.5 mM dithiothreitol; protein (0.5 mM) in the cell, peptide (7.5 mM) in the syringe; one set of sites model. The settings on record: both partners purified. (Isothermal titration calorimetry measures the heat released or taken up as one component is titrated into another.)

B1: JMJD6 peptide W85A (peptide, UniProt Q6NYC1 84-96, looked up)
peptide: KATLERLKRKYRN
notes: JMJD6 residues 84-96 with W85A; also called W85A peptide
The molecule B1 displayed a Kd of 675 ± 66 µM.

As usually defined, the Kd is the free concentration of one partner at which half of the binding sites on the other are occupied at equilibrium, for simple one-to-one binding. Low readings indicate tighter binding, high ones weaker binding.
